Assay [1] deals with T1, recombinant human tau (human, UniProt P10636-6 1-383, limits assumed).
T1 construct: also called recombinant tau
Description: SPR, Biacore T200, antibody captured by anti-human antibody, tau as analyte, single cycle, 1:1 fit. The procedure: Affinity of purified humanized variants to tau were determined by surface plasmon resonance (SPR). SPR analysis was performed using a Biacore T200 to determine the binding kinetics of humanized antibodies to recombinant human tau. To prepare a sensor surface, anti-human antibody (GE Life Sciences) was immobilized on sensor chip CM3 via amine coupling, and antibody was captured at a level to ensure maximum binding of 50 RU. Various concentrations of recombinant tau ranging from 50-0.62 nM were passed over the captured ligand at a flow rate of 50 μL/min in running buffer (HBS+0.05% P-20, 1 mg/mL BSA), in a single cycle manner. Data were double-referenced to both an irrelevant sensor not containing antibody ligand, and 0 nM analyte concentration to account for the dissociation of ligand from the capture moiety. Data were then analyzed using a 1:1 fit. Results are presented in Table 9, in columns labeled “k₀ (M⁻¹s⁻¹), koff (s⁻¹), and Kd (nM).”
For orientation: Surface plasmon resonance follows binding to a sensor surface in real time, without labels.

The target of assay [2] is recombinant human tau (human, UniProt P10636 1-383). Description: SPR, Biacore T200: antibody captured on anti-mouse CM5 chip, recombinant human tau 10-0.14 nM as analyte, global 1:1 fit. The procedure: (§1) Methods: SPR analysis was performed using a Biacore T200 to determine the binding kinetics of murine antibodies to recombinant human tau. To prepare a sensor surface, anti-mouse antibody (GE Life Sciences) was immobilized on sensor chip CM5 via amine coupling, and antibody was captured at a level to ensure maximum binding of 50 RU. Various concentrations of recombinant tau ranging from 10-0.14 nM were passed over the captured ligand at a flow rate of 50 μL/min in running buffer (HBS+0.05% P-20, 1 mg/mL BSA), for 180 sec association and 900 sec dissociation. Data were double-referenced to both an irrelevant sensor not containing antibody ligand, and 0 nM analyte concentration to account for the dissociation of ligand from the capture moiety. Data was then analyzed using a global 1:1 fit.
Sequence of recombinant human tau (human, UniProt P10636 1-383) (P10636 other isoform, or with tags, fused parts or gaps): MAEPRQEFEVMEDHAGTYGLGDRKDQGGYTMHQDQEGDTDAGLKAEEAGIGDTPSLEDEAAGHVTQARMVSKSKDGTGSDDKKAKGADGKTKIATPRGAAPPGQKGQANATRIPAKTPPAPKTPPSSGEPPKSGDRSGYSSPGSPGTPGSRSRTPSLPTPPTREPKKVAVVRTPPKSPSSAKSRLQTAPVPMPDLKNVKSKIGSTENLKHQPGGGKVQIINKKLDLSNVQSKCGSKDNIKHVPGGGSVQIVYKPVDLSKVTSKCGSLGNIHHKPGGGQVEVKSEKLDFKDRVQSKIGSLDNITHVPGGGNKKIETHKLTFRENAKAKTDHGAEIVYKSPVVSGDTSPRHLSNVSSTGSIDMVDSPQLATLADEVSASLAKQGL
(§2) Results: Multiple murine antibodies were selected based on their performance in a battery of ELISA assays, and their binding affinities were assessed via SPR. Antibodies were tested in parallel sets, and their binding association and dissociation rates were compared to select the highest binder to recombinant human tau.

The target in assay [3] is T1, recombinant human tau. The assay is described as above. The procedure:
as §1, §2

By Kd is commonly meant the free concentration of one partner at which half of the binding sites on the other are occupied at equilibrium, for simple one-to-one binding. Usually koff stands for the first-order rate constant of dissociation. The kon is the second-order rate constant of association.

Changes are numbered by the printed parent chain.

T1 sequence (P10636 other isoform, or with tags, fused parts or gaps limits assumed): as the sequence (P10636 other isoform, or with tags, fused parts or gaps) above

B1: Hu3D6VHvb1 / Hu3D6VLvb1 (antibody, V domains shown)
VH: QVQLQQSGAELVKPGASVKLSCTASGFNIKDYYLHWVKQRPEQGLEWIGWIDPENGDTVYDPKFQGKATITADTSSNTAYLQLSSLTSEDTAVYFCSTLDFWGQGTTLTVSS
VL: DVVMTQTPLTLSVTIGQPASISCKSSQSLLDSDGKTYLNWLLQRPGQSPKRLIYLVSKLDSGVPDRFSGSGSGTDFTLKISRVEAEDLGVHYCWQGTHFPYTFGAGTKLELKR
notes: Humanized 3D6 variant, transiently expressed as intact antibody in HEK-293 cells; also called VHvb1/VLvb1
With B1, in assay [1], the dissociation constant Kd came out at 0.64 nM, the koff worked out at 0.0009 s⁻¹ and the kon amounted to 1.4e+06 M⁻¹ s⁻¹.

B2: 8A4 (antibody, V domains shown)
VH: B1 VH with Q1E, K13R, S17L, T23K, L34I, K63Q, G66D, T69N, D90G, F95Y
VL: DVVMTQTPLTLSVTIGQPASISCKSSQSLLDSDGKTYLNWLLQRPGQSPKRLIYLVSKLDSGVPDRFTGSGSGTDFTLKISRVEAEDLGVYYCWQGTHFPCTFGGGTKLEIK
For B2, in assay [2], the Kd came to 3.8 nM, the koff was 0.00227 s⁻¹ and the kon amounted to 599000 M⁻¹ s⁻¹.

B3: mouse 3D6 antibody (antibody, V domains shown)
VH: B1 VH with Q1E, E10D, K13R, S17L, T23K, K38R, S84G
VL: not shown
notes: Mouse monoclonal antibody from hybridoma; also called murine 3D6; m3D6
As to B3, in assay [3], the Kd is 0.46 nM, the koff turned out to be 0.00119 s⁻¹ and the kon turned out to be 2.58e+06 M⁻¹ s⁻¹.

B4: Hu3D6VHvb4 / Hu3D6VLvb2 (antibody, V domains shown)
VH: EVQLVQSGAEVVKPGATVKISCKASGFTIKDYYLHWVRQRPGKGLEWIGWIDPENGDTIYDPKFQGRVTITADTSTDTAYMELSSLRSEDTAVYYCSTLDFWGQGTLVTVSS
VL: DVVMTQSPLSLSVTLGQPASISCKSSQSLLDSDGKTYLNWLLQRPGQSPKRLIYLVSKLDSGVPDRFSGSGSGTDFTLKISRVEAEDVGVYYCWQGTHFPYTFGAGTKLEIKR
notes: Humanized 3D6 variant, expressed as intact antibody in HEK-293 cells; also called VHvb4/VLvb2
Turning to B4, in assay [1], the Kd worked out at 4.2 nM, the koff came to 0.0029 s⁻¹ and the kon was found to be 690000 M⁻¹ s⁻¹.

B5: Hu3D6VHvb2 / Hu3D6VLvb2 (antibody, V domains shown)
VH: B4 VH with T17S, T28N, I59V, V68A, M81L, R87T, Y95F
VL: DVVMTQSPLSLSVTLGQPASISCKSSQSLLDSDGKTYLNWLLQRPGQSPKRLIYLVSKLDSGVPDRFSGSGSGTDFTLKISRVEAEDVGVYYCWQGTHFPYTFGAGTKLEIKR
notes: Humanized 3D6 variant, expressed as intact antibody in HEK-293 cells; also called VHvb2/VLvb2
For B5, in assay [1], the Kd worked out at 0.04 nM, the koff turned out to be 5.7e-05 s⁻¹ and the kon is 1.5e+06 M⁻¹ s⁻¹.

B6: Hu3D6VHvb5 / Hu3D6VLvb3 (antibody, V domains shown)
VH: B4 VH with N55D, D57E
VL: DVVMTQSPLSLSVTLGEPASISCRSSQSLLDSDGKTYLNWLQQRPGQSPRRLIYLVSKLDSGVPDRFSGSGSGTDFTLKISRVEAEDVGVYYCWQGTHFPYTFGQGTKLEIKR
notes: Humanized 3D6 variant, expressed as intact antibody in HEK-293 cells; also called VHvb5/VLvb3
For B6, in assay [1], the Kd amounted to 1.4 nM, the koff came to 0.0028 s⁻¹ and the kon came out at 2e+06 M⁻¹ s⁻¹.

B7: Hu3D6VHvb5 / Hu3D6VLvb2 (antibody, V domains shown)
VH: B4 VH with N55D, D57E
VL: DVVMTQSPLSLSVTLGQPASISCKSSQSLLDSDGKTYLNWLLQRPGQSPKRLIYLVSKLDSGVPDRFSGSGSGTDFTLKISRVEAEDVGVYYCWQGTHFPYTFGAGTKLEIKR
notes: Humanized 3D6 variant, expressed as intact antibody in HEK-293 cells; also called VHvb5/VLvb2
On to B7, for which, in assay [1], the Kd is 1.44 nM, the koff turned out to be 0.0026 s⁻¹ and the kon stood at 1.8e+06 M⁻¹ s⁻¹.

B8: Hu3D6VHvb3 / Hu3D6VLvb2 (antibody, V domains shown)
VH: B4 VH with T28N, V68A
VL: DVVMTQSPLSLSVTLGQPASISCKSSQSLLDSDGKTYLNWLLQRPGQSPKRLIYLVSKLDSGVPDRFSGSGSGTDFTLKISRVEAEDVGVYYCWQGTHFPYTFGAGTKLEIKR
notes: Humanized 3D6 variant, expressed as intact antibody in HEK-293 cells; also called VHvb3/VLvb2
As for B8, in assay [1], the Kd is 1.07 nM, the koff is 0.0015 s⁻¹ and the kon stood at 1.4e+06 M⁻¹ s⁻¹.

B9: Hu3D6VHvb6 / Hu3D6VLvb3 (antibody, V domains shown)
VH: B4 VH with N55D, D57E, I59V, Y95F
VL: B6 VL
notes: Humanized 3D6 variant, expressed as intact antibody in HEK-293 cells; also called VHvb6/VLvb3
Turning to B9, in assay [1], the Kd turned out to be 0.152 nM, the koff stood at 0.000538 s⁻¹ and the kon came out at 3.54e+06 M⁻¹ s⁻¹.

B10: Hu3D6VHvb7 / Hu3D6VLvb2 (antibody, V domains shown)
VH: B4 VH with N55D, D57E, I59V
VL: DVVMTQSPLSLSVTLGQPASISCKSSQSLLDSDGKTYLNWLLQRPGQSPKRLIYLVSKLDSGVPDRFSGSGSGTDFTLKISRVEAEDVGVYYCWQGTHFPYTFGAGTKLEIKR
notes: Humanized 3D6 variant, expressed as intact antibody in HEK-293 cells; also called VHvb7/VLvb2
In the case of B10, in assay [1], the Kd amounted to 0.252 nM, the koff is 0.000779 s⁻¹ and the kon is 3.09e+06 M⁻¹ s⁻¹.

B11: Hu3D6VHvb4 / Hu3D6VLvb3 (antibody, V domains shown)
VH: B4 VH
VL: B6 VL
notes: Humanized 3D6 variant, expressed as intact antibody in HEK-293 cells; also called VHvb4/VLvb3
With B11, in assay [1], the Kd amounted to 3.74 nM, the koff was determined as 0.0034 s⁻¹ and the kon amounted to 910000 M⁻¹ s⁻¹.

B12: Hu3D6VHvb3 / Hu3D6VLvb3 (antibody, V domains shown)
VH: B4 VH with T28N, V68A
VL: B6 VL
notes: Humanized 3D6 variant, expressed as intact antibody in HEK-293 cells; also called VHvb3/VLvb3
Take B12: in assay [1], the Kd was 1.13 nM, the koff was determined as 0.0018 s⁻¹ and the association rate constant (kon) is 1.6e+06 M⁻¹ s⁻¹.

B13: Hu3D6VHvb2 / Hu3D6VLvb3 (antibody, V domains shown)
VH: B4 VH with T17S, T28N, I59V, V68A, M81L, R87T, Y95F
VL: B6 VL
notes: Humanized 3D6 variant, expressed as intact antibody in HEK-293 cells; also called VHvb2/VLvb3
Consider B13, for which, in assay [1], the Kd came to 0.19 nM, the koff was found to be 0.0003 s⁻¹ and the kon was found to be 1.6e+06 M⁻¹ s⁻¹.

B14: Hu3D6VHvb6 / Hu3D6VLvb2 (antibody, V domains shown)
VH: B4 VH with N55D, D57E, I59V, Y95F
VL: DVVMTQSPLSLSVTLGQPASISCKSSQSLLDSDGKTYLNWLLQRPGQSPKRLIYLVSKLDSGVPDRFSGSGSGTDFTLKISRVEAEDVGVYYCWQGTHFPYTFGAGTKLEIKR
notes: Humanized 3D6 variant, expressed as intact antibody in HEK-293 cells; also called VHvb6/VLvb2
As for B14, in assay [1], the Kd came out at 0.107 nM, the koff worked out at 0.000369 s⁻¹ and the kon worked out at 3.45e+06 M⁻¹ s⁻¹.

B15: Hu3D6VHvb7 / Hu3D6VLvb3 (antibody, V domains shown)
VH: B4 VH with N55D, D57E, I59V
VL: B6 VL
notes: Humanized 3D6 variant, expressed as intact antibody in HEK-293 cells; also called VHvb7/VLvb3
Take B15: in assay [1], the Kd stood at 0.209 nM, the dissociation rate constant (koff) came to 0.00077 s⁻¹ and the kon is 3.69e+06 M⁻¹ s⁻¹.

B16: anti-tau antibody 5G8 (antibody, V domains shown)
VH: EVQLQQSGAELVRSGASVRLSCTASGFNIKDYYMHWVRQRPEQGLEWIGWIDPENGDTVYAPKFQGKATMTSDTSSNTAYLHLSSLTSEDTAVYYCSPLDFWGQGTTLTVSS
VL: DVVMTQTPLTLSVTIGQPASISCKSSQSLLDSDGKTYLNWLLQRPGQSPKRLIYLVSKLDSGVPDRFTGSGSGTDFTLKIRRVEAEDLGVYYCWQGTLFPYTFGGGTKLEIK
In the case of B16, in assay [2], the Kd turned out to be 6.78 nM, the koff worked out at 0.00254 s⁻¹ and the kon turned out to be 375000 M⁻¹ s⁻¹.

For the origin of these results see patent US20220153821A1 (PROTHENA BIOSCIENCES, published 2022).
